Measurements reported in US20090022728A1 (RINAT NEUROSCIENCE, published 2009).
Where no end group is shown, it is not given here.

T1: biotinylated Aβ22-37 peptide (also: biotinylated, site not given here)
T1 peptide: EDVGSNKGAIIGLMVG


Experiments:
Aβ1-40 peptide [1] = target: T2, Aβ1-40 peptide; assay: SPR, mAb on CM5 chip, peptide flowed
T2 construct: synthetic peptide, not biotinylated; also called 1-40 (WT); beta amyloid 1-40
Protocol: Affinities of 9TL monoclonal antibody were determined using the BIAcore3000™ surface plasmon resonance (SPR) system (BIAcore, INC, Piscaway N.J.). […] CM5 chips were activated with N-ethyl-N′-(3-dimethylaminopropyl)-carbodiimide hydrochloride (EDC) and N-hydroxysuccinimide (NHS) according to the supplier's instructions. Antibody 9TL or its variants was diluted into 10 mM sodium acetate pH 4.0 or 5.0 and injected over the activated chip at a concentration of 0.005 mg/mL. Using variable flow time across the individual chip channels, a range of antibody density was achieved: 1000-2000 or 2000-3000 response units (RU). The chip was blocked with ethanolamine. […] HBS-EP buffer (0.01M HEPES, pH 7.4, 0.15 M NaCl, 3 mM EDTA, 0.005% Surfactant P20) was used as running buffer for all the BIAcore assays. […] Kinetic association rates (kₒₙ) and dissociation rates (koff) were obtained simultaneously by fitting the data to a 1:1 Langmuir binding model (Karlsson, R. Roos, H. Fagerstam, L. Petersson, B. (1994). Methods Enzymology 6. 99-110) using the BIAevaluation program. Equilibrium dissociation constant (KD) values were calculated as koff/kₒₙ.

[2] = target: T3, biotinylated Aβ1-42 peptide (biotinylated (N-biotinylated in Example 7)); assay: SPR, Fab over biotinylated peptide on streptavidin chip
T3 construct: captured on streptavidin chip; also called N-biotinylated Aβ1-42
T3 sequence (peptide, as listed by the source): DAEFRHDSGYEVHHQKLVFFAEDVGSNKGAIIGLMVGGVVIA

[3] = target: T1, biotinylated Aβ22-37 peptide; assay: as above
[4] = target: T4, biotinylated Aβ1-40 peptide (biotinylated (N-biotinylated in Example 7)); assay: as above
T4 construct: captured on streptavidin (SA) chip; also called Biotinylated Aβ peptide 1-40; Aβ1-40 on SA chip
T4 sequence (peptide, as listed by the source): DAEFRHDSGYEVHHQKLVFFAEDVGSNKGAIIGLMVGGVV

Aβ1-40 peptide [5] = target: T2, Aβ1-40 peptide; assay: ELISA, nonbiotinylated peptide on plate
Protocol: (§1) ELISA was used for measuring binding of antibody 6G and variants to nonbiotinylated Aβ peptides. NUNC maxisorp plates were coated with 2.5 ug/ml of Aβ peptides in PBS pH 7.4 for more than 1 hour at 4° C. Plates were blocked with 1% BSA in PBS buffer pH 7.4. Primary antibody (from cell supernatants, serum containing anti-Aβ antibody, or purified full antibody or Fabs at desired dilution) was incubated with the immobilized Aβ peptides for 1 h at room temperature. After washing, the plates were incubated with secondary antibody, a HRP conjugated goat anti-human kappa chain antibody (MP Biomedicals, 55233) at 1:5000 dilution. After washing, bound secondary antibody was measured by adding TMB substrate (KPL, 50-76-02, 50-65-02). The HRP reaction was stopped by adding 1M phosphoric acid and absorbance at 450 nm was measured.
(§2) All amino acid substitutions of the variants shown in Table 8 are described relative to the sequence of 6G. Binding was determined by ELISA described above with nonbiotinylated Aβ₁₋₄₀ or Aβ₁₋₄₂ immobilized on the surface of an ELISA plate.

Aβ1-42 peptide = target: T5, Aβ1-42 peptide; assay: ELISA, nonbiotinylated peptide on plate
T5 construct: also called 1-42 (WT)
Protocol: as §1, §2

Binder | A450 ELISA (Aβ1-40 peptide [5]) [A450] | A450 ELISA (Aβ1-42 peptide) [A450] | also measured
antibody 9TL (full monoclonal antibody) (antibody, human IgG2, kappa, V domains shown, human IgG2a constant region with A330P331 to S330S331; human kappa light chain; also called 9TL mAb) VH: QVQLVQSGAEVKKPGASVKVSCKASGYYTEAYYIHWVRQAPGQGLEWMGRIDPATGNTKYAPRLQDRVTMTRDTSTSTVYMELSSLRSEDTAVYYCASLYSLPVYWGQGTTVTVSS VL: DVVMTQSPLSLPVTLGQPASISCKSSQSLLYSDAKTYLNWFQQRPGQSPRRLIYQISRLDPGVPDRFSGSGSGTDFTLKISRVEAEDVGVYYCLQGTHYPVLFGQGTRLEIKR | – | – | Kd (Aβ1-40 peptide [1]): 0.9 nM; koff (Aβ1-40 peptide [1]): 0.000389 s⁻¹; kon (Aβ1-40 peptide [1]): 425000 M⁻¹ s⁻¹
6G Fab fragment (Fab, V domains shown, Fab from E. coli with human IgG2 CH1 (P01859) and human kappa constant domain (CAA09181)) VH: QVQLVQSGAEVKKPGASVKVSCKASGYTFTTYAIHWVRQAPGQGLEWMGFTSPYSGVSNYNQKFKGRVTMTRDTSTSTVYMELSSLRSEDTAVYYCARFDNYDRGYVRDYWGQGTLVTVS VL: DIVMTQSPDSLAVSLGERATINCRASESVDNDRISFLNWYQQKPGQPPKLLIYAATKQGTGVPDRFSGSGSGTDFTLTISSLQAEDVAVYYCQQSKEFPWSFGGGTKVEIKR | – | – | Kd [2]: 80 nM; koff [2]: 0.0016 s⁻¹; kon [2]: 18000 M⁻¹ s⁻¹; Kd [3]: 11 nM; koff [3]: 0.0039 s⁻¹; kon [3]: 360000 M⁻¹ s⁻¹; Kd [4]: 2 nM; koff [4]: 0.0007 s⁻¹; kon [4]: 300000 M⁻¹ s⁻¹
6G light chain variant 5H (E97R) (antibody, V domains shown) VH: QVQLVQSGAEVKKPGASVKVSCKASGYTFTTYAIHWVRQAPGQGLEWMGFTSPYSGVSNYNQKFKGRVTMTRDTSTSTVYMELSSLRSEDTAVYYCARFDNYDRGYVRDYWGQGTLVTVS VL: DIVMTQSPDSLAVSLGERATINCRASESVDNDRISFLNWYQQKPGQPPKLLIYAATKQGTGVPDRFSGSGSGTDFTLTISSLQAEDVAVYYCQQSKRFPWSFGGGTKVEIKR | 2.6 | 0.85 | –
6G heavy chain variant 6F (R104S) (antibody, V domains shown) VH: QVQLVQSGAEVKKPGASVKVSCKASGYTFTTYAIHWVRQAPGQGLEWMGFTSPYSGVSNYNQKFKGRVTMTRDTSTSTVYMELSSLRSEDTAVYYCARFDNYDSGYVRDYWGQGTLVTVS VL: DIVMTQSPDSLAVSLGERATINCRASESVDNDRISFLNWYQQKPGQPPKLLIYAATKQGTGVPDRFSGSGSGTDFTLTISSLQAEDVAVYYCQQSKEFPWSFGGGTKVEIKR | 2.28 | 0.62 | –
6G heavy chain variant 11D (Y102M) (antibody, V domains shown) VH: QVQLVQSGAEVKKPGASVKVSCKASGYTFTTYAIHWVRQAPGQGLEWMGFTSPYSGVSNYNQKFKGRVTMTRDTSTSTVYMELSSLRSEDTAVYYCARFDNMDRGYVRDYWGQGTLVTVS VL: DIVMTQSPDSLAVSLGERATINCRASESVDNDRISFLNWYQQKPGQPPKLLIYAATKQGTGVPDRFSGSGSGTDFTLTISSLQAEDVAVYYCQQSKEFPWSFGGGTKVEIKR | 0.29 | 0.24 | –
6G light chain variant 3A (Q93P) (antibody, V domains shown) VH: QVQLVQSGAEVKKPGASVKVSCKASGYTFTTYAIHWVRQAPGQGLEWMGFTSPYSGVSNYNQKFKGRVTMTRDTSTSTVYMELSSLRSEDTAVYYCARFDNYDRGYVRDYWGQGTLVTVS VL: DIVMTQSPDSLAVSLGERATINCRASESVDNDRISFLNWYQQKPGQPPKLLIYAATKQGTGVPDRFSGSGSGTDFTLTISSLQAEDVAVYYCPQSKEFPWSFGGGTKVEIKR | 0.08 | 0.13 | –
6G heavy chain variant 10G (Y102I) (antibody, V domains shown) VH: QVQLVQSGAEVKKPGASVKVSCKASGYTFTTYAIHWVRQAPGQGLEWMGFTSPYSGVSNYNQKFKGRVTMTRDTSTSTVYMELSSLRSEDTAVYYCARFDNIDRGYVRDYWGQGTLVTVS VL: DIVMTQSPDSLAVSLGERATINCRASESVDNDRISFLNWYQQKPGQPPKLLIYAATKQGTGVPDRFSGSGSGTDFTLTISSLQAEDVAVYYCQQSKEFPWSFGGGTKVEIKR | 0.63 | 0.22 | –

Continued, in another order:

A450 ELISA (Aβ1-40 peptide [5]) [A450] | A450 ELISA (Aβ1-42 peptide) [A450] | Binder | also measured
2.45 | 1 | 6G heavy chain variant 4D (R104Q) (antibody, V domains shown) VH: QVQLVQSGAEVKKPGASVKVSCKASGYTFTTYAIHWVRQAPGQGLEWMGFTSPYSGVSNYNQKFKGRVTMTRDTSTSTVYMELSSLRSEDTAVYYCARFDNYDQGYVRDYWGQGTLVTVS VL: DIVMTQSPDSLAVSLGERATINCRASESVDNDRISFLNWYQQKPGQPPKLLIYAATKQGTGVPDRFSGSGSGTDFTLTISSLQAEDVAVYYCQQSKEFPWSFGGGTKVEIKR | –
2.6 | 0.9 | 6G light chain variant 8G (E97V) (antibody, V domains shown) VH: QVQLVQSGAEVKKPGASVKVSCKASGYTFTTYAIHWVRQAPGQGLEWMGFTSPYSGVSNYNQKFKGRVTMTRDTSTSTVYMELSSLRSEDTAVYYCARFDNYDRGYVRDYWGQGTLVTVS VL: DIVMTQSPDSLAVSLGERATINCRASESVDNDRISFLNWYQQKPGQPPKLLIYAATKQGTGVPDRFSGSGSGTDFTLTISSLQAEDVAVYYCQQSKVFPWSFGGGTKVEIKR | –
0.07 | 0.13 | 6G light chain variant 2H (Q93K) (antibody, V domains shown) VH: QVQLVQSGAEVKKPGASVKVSCKASGYTFTTYAIHWVRQAPGQGLEWMGFTSPYSGVSNYNQKFKGRVTMTRDTSTSTVYMELSSLRSEDTAVYYCARFDNYDRGYVRDYWGQGTLVTVS VL: DIVMTQSPDSLAVSLGERATINCRASESVDNDRISFLNWYQQKPGQPPKLLIYAATKQGTGVPDRFSGSGSGTDFTLTISSLQAEDVAVYYCKQSKEFPWSFGGGTKVEIKR | –
2.41 | 1.34 | 6G light chain variant 6D (E97T) (antibody, V domains shown) VH: QVQLVQSGAEVKKPGASVKVSCKASGYTFTTYAIHWVRQAPGQGLEWMGFTSPYSGVSNYNQKFKGRVTMTRDTSTSTVYMELSSLRSEDTAVYYCARFDNYDRGYVRDYWGQGTLVTVS VL: DIVMTQSPDSLAVSLGERATINCRASESVDNDRISFLNWYQQKPGQPPKLLIYAATKQGTGVPDRFSGSGSGTDFTLTISSLQAEDVAVYYCQQSKTFPWSFGGGTKVEIKR | –
0.05 | 0.05 | 6G light chain variant 6C (E97G) (antibody, V domains shown) VH: QVQLVQSGAEVKKPGASVKVSCKASGYTFTTYAIHWVRQAPGQGLEWMGFTSPYSGVSNYNQKFKGRVTMTRDTSTSTVYMELSSLRSEDTAVYYCARFDNYDRGYVRDYWGQGTLVTVS VL: DIVMTQSPDSLAVSLGERATINCRASESVDNDRISFLNWYQQKPGQPPKLLIYAATKQGTGVPDRFSGSGSGTDFTLTISSLQAEDVAVYYCQQSKGFPWSFGGGTKVEIKR | –
